The record followed here is paper PMC9998502, “Functional selectivity of EM-2 analogs at the mu-opioid receptor” (Frontiers in Pharmacology, 2023).

Broadly, the Ki is the dissociation constant of the complex between target and ligand, obtained from inhibition or displacement.

The target in test [1] is human delta opioid receptor (human) (UniProt P41143).
Test [2] deals with human kappa opioid receptor (human) (UniProt P41145). The experiment in a line: radioligand binding; displacement of [3H]U-69593 from commercial membranes of CHO cells transfected with the human recombinant kappa opioid receptor; Ki, mean ± SEM, n ≥ 3. (Loss of bound radioactivity is the signal in a displacement assay; it reports binding, not function.)
Test [3] deals with human delta opioid receptor (human) (UniProt P41143). The experiment in a line: radioligand binding; displacement of [3H]deltorphin-2 from commercial membranes of CHO cells transfected with the human recombinant delta opioid receptor; Ki, mean ± SEM, n ≥ 3.
Test [4] deals with human mu opioid receptor (human) (UniProt P35372).
Test [5] concerns the target RLuc-tethered human mu receptor fusion protein (human) (UniProt P35372).
In test [6] the target is human mu opioid receptor (human) (UniProt P35372). The experiment in a line: radioligand binding; displacement of [3H]DAMGO from commercial membranes of CHO cells transfected with the human recombinant mu opioid receptor; Ki, mean ± SEM, n ≥ 3.
The target of test [7] is human kappa opioid receptor (human) (UniProt P41145).

DPDPE (peptide): the calcium mobilization, CHO cells with delta receptor and GαqG66Di5: α (Emax ratio to the standard agonist) in test [1] came to 1.
In the case of “EM-2 analog 1 (Dmt-Pro-Phe-Phe-NH2) (peptide)”, the Ki stood at 830 nM in test [2] and 560 nM in test [3].
“EM-2 analog 2 (Tyr-(R)-Pip-Phe-Phe-NH2) (peptide)”: the calcium mobilization, CHO cells with human mu receptor and Gαqi5: α (Emax ratio to the standard agonist) in test [4] was 0.64. This substance also gave a BRET of mu-RLuc with Gβ1-RGFP promoted by the peptide, SH-SY5Y membranes: Emax (EM-2 = 1.00) in test [5] of 0.83. Further, the Ki in test [6] was 17.7 nM; in test [2], more than 1000 nM; in test [3] it was 682 nM.
On to “EM-2 analog 3 (Dmt-(R)-Pip-Phe-Phe-NH2) (peptide)”, for which the calcium mobilization, CHO cells with delta receptor and GαqG66Di5: α (Emax ratio to the standard agonist) in test [1] worked out at 0.56. For the same substance, in test [4], the calcium mobilization, CHO cells with human mu receptor and Gαqi5: α (Emax ratio to the standard agonist) worked out at 0.7. This substance also showed a BRET of mu-RLuc with Gβ1-RGFP promoted by the peptide, SH-SY5Y membranes: Emax (EM-2 = 1.00) in test [5] of 0.83. For the same substance, the values for the Ki in test [6], in test [2] and in test [3] were 3.92 nM, 72 nM and 37 nM, respectively.
With “EM-2 analog 4 (Tyr-(R)-Nip-Phe-Phe-NH2) (peptide)”, the calcium mobilization, CHO cells with human mu receptor and Gαqi5: α (Emax ratio to the standard agonist) in test [4] stood at 0.99. Further, in test [5], the BRET of mu-RLuc with Gβ1-RGFP promoted by the peptide, SH-SY5Y membranes: Emax (EM-2 = 1.00) worked out at 1.11. Also, in test [5], the BRET of mu-RLuc with β-arrestin 2-RGFP promoted by the peptide, living SH-SY5Y cells: Emax (EM-2 = 1.00) is 1.3. The Ki in test [6] is 0.85 nM; in test [2], more than 1000 nM; in test [3], more than 1000 nM.
With “EM-2 analog 5 (Dmt-(R)-Nip-Phe-Phe-NH2) (peptide)”, the calcium mobilization, CHO cells with human mu receptor and Gαqi5: α (Emax ratio to the standard agonist) in test [4] turned out to be 1. The BRET of mu-RLuc with Gβ1-RGFP promoted by the peptide, SH-SY5Y membranes: Emax (EM-2 = 1.00) in test [5] came to 1.11. The BRET of mu-RLuc with β-arrestin 2-RGFP promoted by the peptide, living SH-SY5Y cells: Emax (EM-2 = 1.00) in test [5] was determined as 1.26. Moreover, the values for the Ki in test [6], in test [2] and in test [3] were 0.14 nM, 567 nM and 589 nM, respectively.
For the substance “EM-2 analog 6 (Tyr-(R)-β2-Ala-Phe-Phe-NH2) (peptide)”, the calcium mobilization, CHO cells with human mu receptor and Gαqi5: α (Emax ratio to the standard agonist) in test [4] is 0.88. Also, in test [5], the BRET of mu-RLuc with Gβ1-RGFP promoted by the peptide, SH-SY5Y membranes: Emax (EM-2 = 1.00) turned out to be 0.86. In test [5], this substance displayed a BRET of mu-RLuc with β-arrestin 2-RGFP promoted by the peptide, living SH-SY5Y cells: Emax (EM-2 = 1.00), forced to 1 of 1. Also, the Ki in test [6] is 46.8 nM; in test [2] it was more than 1000 nM; in test [3], more than 1000 nM.
Turning to “EM-2 analog 7 (Dmt-(R)-β2-Ala-Phe-Phe-NH2) (peptide)”, the calcium mobilization, CHO cells with human mu receptor and Gαqi5: α (Emax ratio to the standard agonist) in test [4] turned out to be 0.95. Besides, the BRET of mu-RLuc with Gβ1-RGFP promoted by the peptide, SH-SY5Y membranes: Emax (EM-2 = 1.00) in test [5] is 0.98. Also, the BRET of mu-RLuc with β-arrestin 2-RGFP promoted by the peptide, living SH-SY5Y cells: Emax (EM-2 = 1.00) in test [5] came to 0.61. For the same substance, the Ki in test [6] stood at 0.31 nM; in test [2], 807 nM; in test [3], 571 nM.
For the substance “EM-2 analog 8 (Tyr-(R)-β3-Ala-Phe-Phe-NH2) (peptide)”, the calcium mobilization, CHO cells with human mu receptor and Gαqi5: α (Emax ratio to the standard agonist) in test [4] was 0.99. The BRET of mu-RLuc with Gβ1-RGFP promoted by the peptide, SH-SY5Y membranes: Emax (EM-2 = 1.00) in test [5] was determined as 0.96. This substance came in with a BRET of mu-RLuc with β-arrestin 2-RGFP promoted by the peptide, living SH-SY5Y cells: Emax (EM-2 = 1.00) in test [5] of 1.12. For the same substance, the results for the Ki in test [6], in test [2] and in test [3] were 0.44 nM, more than 1000 nM and more than 1000 nM, respectively.
“EM-2 analog 9 (Dmt-(R)-β3-Ala-Phe-Phe-NH2) (peptide)”: in test [4], the calcium mobilization, CHO cells with human mu receptor and Gαqi5: α (Emax ratio to the standard agonist) is 1. Further, the BRET of mu-RLuc with Gβ1-RGFP promoted by the peptide, SH-SY5Y membranes: Emax (EM-2 = 1.00) in test [5] amounted to 1.05. The substance further showed a BRET of mu-RLuc with β-arrestin 2-RGFP promoted by the peptide, living SH-SY5Y cells: Emax (EM-2 = 1.00) in test [5] of 1.16. The Ki in test [6] came to 0.14 nM; in test [2] it was 890 nM; in test [3], 286 nM.
The substance “EM-2 analog 10 (Tyr-Pro-(R)-β2-1-Nal-Phe-NH2) (peptide)” registered a BRET of mu-RLuc with Gβ1-RGFP promoted by the peptide, SH-SY5Y membranes: Emax (EM-2 = 1.00) in test [5] of 0.68.
On the same count and under the same terms, the figure for “EM-2 analog 11 (Dmt-Pro-(R)-β2-1-Nal-Phe-NH2) (peptide)” is 0.81.
For “EM-2 analog 12 (Tyr-Pro-(R)-β3-1-Nal-Phe-NH2) (peptide)”, in test [5], the BRET of mu-RLuc with Gβ1-RGFP promoted by the peptide, SH-SY5Y membranes: Emax (EM-2 = 1.00) was 0.96 and the BRET of mu-RLuc with β-arrestin 2-RGFP promoted by the peptide, living SH-SY5Y cells: Emax (EM-2 = 1.00) worked out at 0.73.
In test [5], “EM-2 analog 13 (Dmt-Pro-(R)-β3-1-Nal-Phe-NH2) (peptide)” had a BRET of mu-RLuc with Gβ1-RGFP promoted by the peptide, SH-SY5Y membranes: Emax (EM-2 = 1.00) of 0.84 and a BRET of mu-RLuc with β-arrestin 2-RGFP promoted by the peptide, living SH-SY5Y cells: Emax (EM-2 = 1.00) of 0.37.
For dynorphin A (peptide), in test [7], the calcium mobilization, CHO cells with human kappa receptor and Gαqi5: α (Emax ratio to the standard agonist) was determined as 1.
In the case of “endomorphin-2 (Tyr-Pro-Phe-Phe-NH2) (peptide)”, the inhibitory constant (Ki) in test [2] and in test [3] was more than 1000 nM in each case.
